The record followed here is the supplement of paper PMC12764529.

± gives the half width of the 95% confidence interval.

Series [1] can be described thus: folding stability dG unfold from trypsin proteolysis; higher = more stable. The procedure:
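Folding stability of de novo designed mini-proteins (<80 aa, no Cys; designed by TrROS, TrMRF, ProteinMPNN and the joint model) was measured by cDNA display proteolysis with trypsin and chymotrypsin. Each protease was used at 11 concentrations in a threefold dilution series plus a no-protease condition. K50 was inferred by Bayesian fitting of sequencing counts, and dG unfold was derived against a sequence-predicted unfolded-state K50 (Tsuboyama et al. method). Sequences shown include variable-length N-terminal GS-type padding (SAGGSAGG...) inside a display construct carrying a PA tag. Rows were kept only if the AF2 dimer inter-PAE was >15, to exclude likely homo-oligomers.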

The nature of series [2]: folding stability dG unfold (combined trypsin and chymotrypsin); higher = more stable. The procedure, abridged: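 Designed mini-proteins with no cysteine and under 80 residues were kept only if AlphaFold2 dimer inter-PAE was above 15. In a PA-tagged cDNA display construct, they were digested with trypsin and chymotrypsin and then sequenced. K50 was inferred by Bayesian fitting of counts, and unfolding free energy was derived per protease or combined against a sequence-predicted unfolded-state K50 and a shared folded-state K50.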

On to “SAGGSAGGSAGMMEEKLIKEYEDPNGGKKYTIKLVKDPKTGKEKIVKETIEPNKKTTEIKNLSAGGSAGGSA [r18_444_JUSTAS]”, for which the results for the “folding stability dG unfold” value in series [1] and in series [2] were -0.36 ± 0.21 kcal/mol and -0.365 ± 0.62 kcal/mol, respectively.
The corresponding values for “SAGGSAGGSAGNMKEVEFTIPGAPPDELADNLPPGIKDVEIERNPEARENGGYSIKAYVDSAGGSAGGSAGG [r11_1002_TrROS]” are -0.0749 ± 0.17 kcal/mol and under -1 kcal/mol.
On the same counts, the results for “SAGGSAGGSAGNVEEIADQLKPNGYKISTVEPTDDQVEVEIYNPESKEPRKFRIPPNQPISAGGSAGGSAGG [r11_428_TrROS]” are -0.414 ± 0.24 kcal/mol and under -1 kcal/mol.
On the same counts, the results for “SAGGSAGGSAGPITITDIPSEEEAAALIAARPGVEVERKPVTLSEEERWEVTLTLPGEAASAGGSAGGSAGG [r17_542_JUSTAS]” are 0.157 ± 0.058 kcal/mol and -0.722 ± 0.18 kcal/mol.
As for “SAGGSAGGSAGPKWKQITIPMEPGQSVNEIADEIKDELGPGKRVHVSMHENGWMTIYVRKSAGGSAGGSAGG [r17_20_TrROS]”, the “folding stability dG unfold” value in series [1] was -0.484 ± 0.23 kcal/mol; in series [2], under -1 kcal/mol.
On the same counts, the results for “SAGGSAGGSAGPPTSILEVKPGGEVTIKEGGTPVTVPSSVPYINLPEGGSAGSVEVPPELSAGGSAGGSAGG [r11_647_JUSTAS]” are 0.394 ± 0.042 kcal/mol and -0.314 ± 0.31 kcal/mol.
The corresponding values for “SAGGSAGGSAGTITTTTDPATGEYTVTIPIASGDGTPVGTIPVTVPKSDPSAAAAFIAATSAGGSAGGSAGG [r11_77_JUSTAS]” are 0.106 ± 0.11 kcal/mol and -0.438 ± 0.29 kcal/mol.
The corresponding values for “SAGGSAGGSAGTIVTPTATYRIEKLPDKRVRIVVGDKEYEVRVGEPFYLPGGVPFEVLDESAGGSAGGSAGG [r11_147_TrMRF]” are 0.35 ± 0.13 kcal/mol and -0.299 ± 0.19 kcal/mol.
“SAGGSAGGSAGTVTVDPEKGVVYVPLPEPISPEEVIEKRKEPELDVKILSVGENVAVILVSAGGSAGGSAGG [r17_323_JUSTAS]”: the “folding stability dG unfold” value was 0.493 ± 0.027 kcal/mol in series [1] and -0.218 ± 0.11 kcal/mol in series [2].
On the same counts, the results for “SAGGSAGGSAGVPVPGTDVPAEPITVLKKNPDGTVTKLKDESLTLEEIKAKLPGEVEFVGSAGGSAGGSAGG [r17_125_JUSTAS]” are 0.0884 ± 0.14 kcal/mol and under -1 kcal/mol.
The corresponding values for “SAGGSAGGSAKITIPASQITHVDLETGELLVDHPSGRPIIFRVDPDRPDLILVEDPSGLSLGSAGGSAGGSA [r18_418_TrMRF]” are -0.703 ± 0.15 kcal/mol and under -1 kcal/mol.
The corresponding values for “SAGGSAGGSALVRIEFPNGREIEIPNNMPYEQAKDVAVELAEEHGKNGRPFKVKIEEIKPPGSAGGSAGGSA [r18_213_TrROS]” are 0.439 ± 0.096 kcal/mol and -0.511 ± 0.56 kcal/mol.
Turning to “SAGGSAGGSAMPEPVTITVRVPYEPDEAEAAAERIREEEYPDAKSITVTRDPATGTATFTVNSAGGSAGGSA [r18_390_JUSTAS]”, the figures for the “folding stability dG unfold” value in series [1] and in series [2] were -0.222 ± 0.18 kcal/mol and under -1 kcal/mol, respectively.
The corresponding values for “SAGGSAGGSANSSSLPPNYVTPLPITVTDSRPGSYMPLEEREARAQALAEANPGVTVTVVRESAGGSAGGSA [r18_499_JUSTAS]” are -0.373 ± 0.099 kcal/mol and under -1 kcal/mol.
On the same counts, the results for “SAGGSAGGSATVIIMVDPDDIEEALKEAPPNSKVMIHNPDNGYMFEITPNKLEIVEPIPPGDSAGGSAGGSA [r18_246_TrROS]” are 0.279 ± 0.058 kcal/mol and -0.0908 ± 0.23 kcal/mol.
The corresponding values for “SAGGSAGGSAVEEEVERIEKAVGVPIDPGSSVTKVKEGVEPVLPYRMDIKPGVESPELLLLSAGGSAGGSAG [r3_427_JUSTAS]” are -0.908 ± 0.53 kcal/mol and under -1 kcal/mol.
Regarding “SAGGSAGGSDPVVIPVPMDDFSKETIKNFIDEAPDDNRPIQMNFPNGKPIYIQVEPDGDIKPVSAGGSAGGS [r12_1054_TrROS]”, the “folding stability dG unfold” value in series [1] was 0.557 ± 0.041 kcal/mol; in series [2] it was under -1 kcal/mol.
On the same counts, the results for “SAGGSAGGSDWFPIRVEDIEYERDPADGRDSVTIEAQFPGKPHTFTIPPNAPIKPGDELWIPFSAGGSAGGS [r20_49_TrROS]” are -1.9 ± 0.8 kcal/mol and under -1 kcal/mol.
On the same counts, the results for “SAGGSAGGSGEEIIKKIAESLIPGHPNLKPDKITYDPKTGKITIKTKNPKAAKLLKELDLIKPSAGGSAGGS [r12_623_TrMRF]” are -0.446 ± 0.28 kcal/mol and under -1 kcal/mol.
On the same counts, the results for “SAGGSAGGSGKWMTAKELLKEFKPGKTIMIRMPPGTEIPPNIKPKGTFPGNGWMMIKIPPNDISAGGSAGGS [r12_356_TrROS]” are -0.2 ± 0.45 kcal/mol and -0.274 ± 0.42 kcal/mol.
In the case of “SAGGSAGGSGMEKKTITITIPVPPDRDVTEEEIKETLKPLGYEEVDIEEIKPAGNSYTVTAVISAGGSAGGS [r20_79_JUSTAS]”, the “folding stability dG unfold” value in series [1] was 0.212 ± 0.13 kcal/mol; in series [2], -0.427 ± 0.52 kcal/mol.
As to “SAGGSAGGSIAPDEPLVLEVEVEEVVPGVGEVLLPEWIAEEFPDAVIEVETDGTPVKVTIYRPSAGGSAGGS [r12_900_TrMRF]”, the results for the “folding stability dG unfold” value in series [1] and in series [2] were 0.743 ± 0.045 kcal/mol and 0.0203 ± 0.076 kcal/mol, respectively.
“SAGGSAGGSIKVPKNSKVTVLYEKGGKKIEVSGIVDPKTGKILETDSLENLPDAKIVEIKVEDSAGGSAGGS [r12_6_TrMRF]”: the figures for the “folding stability dG unfold” value in series [1] and in series [2] were -0.742 ± 0.15 kcal/mol and under -1 kcal/mol, respectively.
The corresponding values for “SAGGSAGGSKFPKKFTVEVYTLTKKLKTPEGKLKTETTVLIEKTEEIKPLPEIDEERVEKVLLSAGGSAGGS [r12_1060_JUSTAS]” are 0.166 ± 0.71 kcal/mol and under -1 kcal/mol.
The corresponding values for “SAGGSAGGSKIKILFDPNMTLEEAIELAEKLTKEFDAEVELEIIPKPKPKPLPVIDPENPKLLSAGGSAGGS [r12_159_TrMRF]” are 0.252 ± 0.028 kcal/mol and -0.72 ± 0.3 kcal/mol.
On the same counts, the results for “SAGGSAGGSKITITIAPGMSEEEAKKLAEELAKEFNIEIEVKIEPLKPVEKKFYVDKETNEIKSAGGSAGGS [r12_159_TrROS_Hall]” are -0.357 ± 0.19 kcal/mol and under -1 kcal/mol.
As to “SAGGSAGGSMIVVKTENGEEIEISKDALKPGMTAEELKAKLPPGVKKIEIVEVKEVEVEVEEESAGGSAGGS [r20_161_TrROS_Hall]”, the figures for the “folding stability dG unfold” value in series [1] and in series [2] were -0.865 ± 0.4 kcal/mol and under -1 kcal/mol, respectively.
The corresponding values for “SAGGSAGGSMKPVLTIPASVTDPEVAIAILREAKAALPEGTQLEVVMPGGAEEELKKAGLILKSAGGSAGGS [r12_992_JUSTAS]” are -1.4 ± 0.71 kcal/mol and under -1 kcal/mol.
The corresponding values for “SAGGSAGGSMKTALLDDGKTIPLPEEELPPDAGVEEVAKKIPPEAKKLTVKEPDGSTKTVPLASAGGSAGGS [r20_161_JUSTAS]” are -0.0521 ± 0.2 kcal/mol and under -1 kcal/mol.
As for “SAGGSAGGSMTETVVLPYPLPPGVPFHIELPDGSKSVSADPETGTLTVLVKKGTEEAVKEALASAGGSAGGS [r12_476_JUSTAS]”, the “folding stability dG unfold” value was -0.508 ± 0.12 kcal/mol in series [1] and -0.989 ± 0.27 kcal/mol in series [2].
The corresponding values for “SAGGSAGGSMTVKKIEIKPPPGGTDLATITTEKVDPSTGKPSLSTSTVTVPKNNPEAIEKFLSSAGGSAGGS [r12_691_JUSTAS]” are -0.257 ± 0.18 kcal/mol and under -1 kcal/mol.
On the same counts, the results for “SAGGSAGGSNIVSARPLGDLVLIEIEPGGKPLRAVVRPSELPPNPPIPPGLSYRVEPGSVSDYSAGGSAGGS [r12_1005_TrMRF]” are -1.09 ± 0.28 kcal/mol and under -1 kcal/mol.
The corresponding values for “SAGGSAGGSPPFTITFIDENGKGVKKINLPFDPKKPSVLPLSEEEIKALKEELGPEAKSITLSSAGGSAGGS [r12_514_JUSTAS]” are -0.658 ± 0.16 kcal/mol and under -1 kcal/mol.
For the sequence “SAGGSAGGSQKIEITKVEPERGPNGRPYHRVNIEIVIPDGKPRKFDFYFDDPEDLENMTIELPSAGGSAGGS [r20_130_TrROS]”, the “folding stability dG unfold” value in series [1] was -0.861 ± 0.17 kcal/mol; in series [2] it was -0.88 ± 0.19 kcal/mol.
On the same counts, the results for “SAGGSAGGSSMPLLTKETSESYDPVNNTKTTTERIEEPGSGKFVFTKTTTTYPDGTVTTTLVESAGGSAGGS [r12_115_JUSTAS]” are -0.336 ± 0.42 kcal/mol and -0.652 ± 0.35 kcal/mol.
On the same counts, the results for “SAGGSAGGSSMPPGWSVTSETVVESIIETPNGPIIKVTTSKTTVTPPNGPPSTYTTTSEDPLGSAGGSAGGS [r12_544_JUSTAS]” are -0.314 ± 0.13 kcal/mol and under -1 kcal/mol.
The corresponding values for “SAGGSAGGSSSVMTVTVEYPTPAPPVVRRETVEVPDPDGSLSEEELKEKYSPPDAVVTEVVRESAGGSAGGS [r12_611_JUSTAS]” are -1.07 ± 0.34 kcal/mol and under -1 kcal/mol.
For the sequence “SAGGSAGGSTIREILDALPPGREIDVERHPNNGHYEISIQNPNGPNPTFQIDDPVTKEIAEWISAGGSAGGS [r12_174_TrROS]”, the “folding stability dG unfold” value in series [1] is 0.65 ± 0.031 kcal/mol; in series [2] it was -0.0634 ± 0.11 kcal/mol.
For “SAGGSAGGSTTSTIKVTLENPSGSPLKLETATITTDPVAGTSTLTVTVPGTGETKFVGTNPNLSSAGGSAGG [r6_330_JUSTAS]”, the “folding stability dG unfold” value worked out at 0.713 ± 0.052 kcal/mol in series [1] and 0.107 ± 0.061 kcal/mol in series [2].
The corresponding values for “SAGGSAGGSVKVTTEPLPNGERLVTVTAYLKSKPYPVLMPYPASATPEQVKETALRIEKELEKSAGGSAGGS [r12_69_TrMRF]” are -0.999 ± 0.49 kcal/mol and under -1 kcal/mol.
As for “SAGGSAGGSYPIFDKEKGKLDPGPPEKELDVVIKVKKDGKWYPIDLKLSKSDLIRFVKELEKDSAGGSAGGS [r20_148_TrMRF]”, the “folding stability dG unfold” value in series [1] was -0.698 ± 0.24 kcal/mol; in series [2] it was under -1 kcal/mol.
On the same counts, the results for “SAGGSAGGSYSKNGQPPPTREIEIIILVEDPEEAENKADELSEMLGMPIKVEIIPEEDAKKMISAGGSAGGS [r12_766_TrROS]” are 0.0437 ± 0.24 kcal/mol and 0.27 ± 0.86 kcal/mol.
